These results are taken from article PMC4988437 (Channels, 2016).

Assay in all cases: FRET or BRET
A general note: In BRET a luciferase serves as donor, and the signal depends on an acceptor being close.

One experiment concerns the target T1, CFP-Rem(1-275) (mouse, UniProt O35929 1-275).
T1 sequence (looked up): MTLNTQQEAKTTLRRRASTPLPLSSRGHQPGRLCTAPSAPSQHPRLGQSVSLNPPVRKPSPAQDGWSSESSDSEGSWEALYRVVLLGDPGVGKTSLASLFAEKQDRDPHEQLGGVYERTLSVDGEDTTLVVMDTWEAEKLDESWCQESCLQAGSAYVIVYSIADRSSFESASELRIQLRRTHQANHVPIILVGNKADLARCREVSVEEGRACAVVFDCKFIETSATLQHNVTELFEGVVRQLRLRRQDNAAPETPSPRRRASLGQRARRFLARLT

In the next experiment the target is T2, CFP-Rem(224-297) (mouse, UniProt O35929 224-297).
T2 sequence (looked up): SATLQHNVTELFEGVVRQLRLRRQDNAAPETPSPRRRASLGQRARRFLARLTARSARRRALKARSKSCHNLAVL

Another experiment has as its target T3, CFP-Rem(1-285) (mouse, UniProt O35929 1-285).
T3 sequence (looked up): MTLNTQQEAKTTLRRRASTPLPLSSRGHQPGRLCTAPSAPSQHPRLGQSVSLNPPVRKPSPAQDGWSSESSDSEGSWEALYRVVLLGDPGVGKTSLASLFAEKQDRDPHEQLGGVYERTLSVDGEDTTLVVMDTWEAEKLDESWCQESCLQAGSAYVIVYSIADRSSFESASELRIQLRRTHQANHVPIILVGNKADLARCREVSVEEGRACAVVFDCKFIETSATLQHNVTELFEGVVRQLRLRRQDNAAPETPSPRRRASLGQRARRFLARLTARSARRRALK

B1: YFP-tagged alpha1C N-terminus (domain or fragment)
chain: not shown
On to B1, for which the FRET efficiency in the experiment with CFP-Rem(1-275) came to 0.04; in the experiment with CFP-Rem(224-297), 0.439; in the experiment with CFP-Rem(1-285) it was 0.071.
